Here are results for two molecules from paper PMC4787773.

The series concerns the target hnRNPK (human, UniProt P61978 1-463). Description: EMSA. On the technique in general: In EMSA bound probe runs differently from free probe, usually more slowly.

B1: d(GGGGCC)8 5mCpG (structured_DNA)
DNA: GGGGCCGGGGCCGGGGCCGGGGCCGGGGCCGGGGCCGGGGCCGGGGCC
modifications: 5-methylcytosine at each CpG
With B1, the binding result was “no binding”.

B2: d(GGGGCC)8 5hmCpG (structured_DNA)
DNA: B1 DNA
modifications: 5-hydroxymethylcytosine at each CpG
B2: the binding result is “no binding”.
